Among the data in doi:10.1101/2019.12.19.882373 are fraction of complexes in binding mode B1 and fraction of complexes in binding mode B1 (cyclophilin-treated) values, retold here.

What all share (test): FRET or BRET
The target of experiment [1] is CipA cohesin 2 module (c2A), G144C, labelled with Cy3B (C. thermocellum).
Experiment [2] addresses CipA cohesin 7 module (c7A) (C. thermocellum) (UniProt Q06851).
Experiment [3] deals with CipA cohesin 1 module (c1A) (C. thermocellum) (UniProt Q06851).
Experiment [4] addresses cohesin 1 from scaffoldin CipC (c1C) (C. cellulolyticum).
Experiment [5] concerns the target cohesin module 7 of scaffoldin CipC (c7C) (C. cellulolyticum).

As for “swapped version of dockerin celS (celS_Swap), helices H1 and H3 exchanged (domain or fragment)”, the fraction of complexes in binding mode B1 in experiment [1] is 0.89; in experiment [2] it was 0.69; in experiment [3], 0.59.
Consider “dockerin from cellulase A (CelA) (domain or fragment)”, for which the values for the fraction of complexes in binding mode B1 in experiment [1] and in experiment [2] were 0.37 and 0.48, respectively.
In experiment [1], “dockerin celS single residue clasp mutant Y5A (celS_Y5A) (domain or fragment)” yielded a fraction of complexes in binding mode B1 of 0.42 and a fraction of complexes in binding mode B1 (cyclophilin-treated) of 0.2.
Consider “dockerin from the cellulase 5A of C. cellulolyticum (CcCel5A) (domain or fragment)”, for which the values for the fraction of complexes in binding mode B1 in experiment [4] and in experiment [5] were 0.26 and 0.45, respectively.
On to “dockerin CelS (type-I dockerin module of cellulase S), D63C, labelled with Alexa Fluor 647 (domain or fragment)”, for which the fraction of complexes in binding mode B1 is 0.43 in experiment [1] and 0.58 in experiment [2].
